Target: T1, 新型冠状病毒S1蛋白 (纯化) (SARS-CoV-2, UniProt P0DTC2 14-685)
T1 construct: domain: S1
Test: SPR, BIAcore 8000, purified S1 protein coupled to the chip, 1:1 binding fit

B1: 人源抗新冠病毒中和性抗体nCoV-163 全抗体IgG (antibody, V domains shown)
VH: EVQLVESGGGLVQPGGSLRLSCEASEIIVNRNYMNWVRQAPGKGLEWVSIIYPGGSTFYADSVKGRFTISRDNSKNTMYLQMNSLRAEDTAVYYCARSYGDFYVDFWGQGTLVTVSS
VL: EIVLTQSPVTLSLSPGERATLSCRASQSVSSSYLAWYQQKPGQAPRLLIYGASSRATGIPDRFSGSGSGTDFTLTISRLEPEDFAVYYCQQHGRTFGQGTKVEIKR
notes: also called nCoV-163号抗体
For B1, which Kd is on record?
The Kd was under 4.88 pM.
